Data from patent US5889173A, “DNA encoding multifunctional neurothrophic factors” (priority 1996, dated 1999).

Experiments:
[1] = test system: TrkA; test: Competitive TrkA receptor binding: displacement of 125I-NGF from rtrkA-3T3 cells; conditions: 125I-NGF displacement, relative binding from IC50 versus wt NGF
Protocol: NIH3T3 fibroblasts expressing TrkA, TrkB or TrkC were used at 2 to 1-33 10^6 cells/ml. […] All components were added at the same time and the cells were collected by centrifugation after equilibrium was reached (90-120 minutes incubation). Cell pellets were then counted in a gamma counter. […] Nonspecific binding was measured in a parallel incubation to which 300 to 1000-fold molar excess of unlabelled purified factor was added.

[2] = test system: E8 chick sympathetic ganglia; test: Neurite outgrowth from explanted E8 chick sympathetic ganglia; format: cell-based; conditions: for Biological Activity % of wild type (neurite outgrowth, sympathetic ganglia): explants of embryonic sympathetic ganglia, relative to wt NGF
Protocol: Fibre outgrowth was scored on a semiquantitative scale in biological units (BU) by comparison to standards obtained with purified mouse NGF, for which 1 BU is equivalent to approximately 5ng/ml. The concentration of each protein that gave 0.6 BU in this scale was determined, and used to calculate the relative activity compared to that obtained with wt NGF.

[3] = test system: dissociated E8 chick sympathetic neurons; test: Survival of dissociated E8 chick sympathetic neurons; format: cell-based; conditions: 2 ng/ml
Protocol: (§1) Dissociated neurons from chick E8 sympathetic and nodose ganglia were preplated on plastic for 2 hr and then cultured in 96 well-plates coated with poly-L-ornithine and laminin at a density of 800-1000 cells/well. Serial dilutions of conditioned media containing equivalent amounts of recombinant proteins were added at the time of plating and neuronal survival was determined after 36-48 hr by phase contrast microscopy, scoring the number of surviving neurons in the entire well.

[4] = test system: TrkB and TrkA; conditions: literature; cited from earlier work
[5] = test system: dissociated E8 chick nodose neurons; test: Survival of dissociated E8 chick nodose ganglion neurons; format: cell-based; conditions: for Nodose neurons rescued (survival): saturating concentrations (20-50 ng/ml)
Protocol: as §1

[6] = test system: TrkB; test: Competitive TrkB receptor binding: displacement of 125I-BDNF from rtrkB-3T3 cells; conditions: for Receptor Binding % of wild type (TrkB): rtrkB-3T3 cells, 125I-BDNF displacement, relative binding from IC50 versus wt BDNF
Protocol: Purified mouse NGF and BDNF were labeled with ^125 I by the lactoperoxidase method to an average specific activity of 1×10^8cpm/μg. For the labeling of BDNF, the modifications described by Rodriguez-Tebar et al. ([Rodriguez-Tebar, 1992]) were used. NIH3T3 fibroblasts expressing TrkA, TrkB or TrkC were used at 2 to 1-33 10^6 cells/ml. Steady state binding was measured in competition assays performed at 4° C. using 1.5×10^-9 M ^125 I-BDNF and serial dilutions of conditioned media containing equivalent amounts of wt or mutated NGF protein. All components were added at the same time and the cells were collected by centrifugation after equilibrium was reached (90-120 minutes incubation). Cell pellets were then counted in a gamma counter. […] Nonspecific binding was measured in a parallel incubation to which 300 to 1000-fold molar excess of unlabelled purified factor was added. All results were corrected for this nonspecific binding, which was less than 10% (for NGF) or 30% (for BDNF) of total binding. The concentration of each chimeric, mutant and wild type molecule that gave 50% binding (IC50) was determined, and relative binding was calculated using the relationship:(mutant IC50 /wild type IC50)×100.

[7] = test system: TrkA; test: Tyrosine phosphorylation of TrkA receptors in rtrkA-3T3 cells; format: cell-based; conditions: 100 ng/ml
Protocol: (§2) Plates were incubated 15 minutes at 4° C. after which insoluble material was removed by centrifugation. Cell lysates were normalized for protein content before immunoprecipitation. […] After 2 hr at 4° C., immunocomplexes were collected with Protein A-Sepharose (Pharmacia, Sweden), washed in lysis buffer and boiled for 5 minutes before SDS/PAGE. After electrophoresis, gels were blotted to nitrocellulose membranes, reacted with anti-phosphotyrosine monoclonal antibody 4G10 (UBI, New York) and developed with the ECL Western Detection System (Amersham, UK). Appropriately exposed autoradiograms of phosphotyrosine blots were used for densitometric scanning.

[8] = test system: TrkB; test: Tyrosine phosphorylation of TrkB receptors in rtrkB-3T3 cells; format: cell-based
Protocol: as §2

[9] = test system: TrkC; test: Tyrosine phosphorylation of TrkC receptors in Trk-expressing cells; format: cell-based; conditions: 100 ng/ml
Protocol: A confluent 10 cm plate containing about 10^7 rtrk-3T3 or rtrkB-3T3 cells was treated for 5 minutes at 37° C. with wt, chimeric or mutant factors and subsequently lysed with 1 ml of ice-cold buffer containing 1% NP40, 20 mM Tris pH 8.0, 137 mM NaCl, 2 mM EDTA, 10% glycerol, 1 mM PMSF, 0.15 U/ml aprotinin, 20 μM leupeptine and 1 mM Na orthovanadate. Plates were incubated 15 minutes at 4° C. after which insoluble material was removed by centrifugation. Cell lysates were normalized for protein content before immunoprecipitation. Trk immunoprecipitation was performed by incubating lysates with 1 μl of anti-TrkB polyclonal antiserum 443 ([Soppet, 1991]) which recognizes TrkA, TrkB and TrkC. After 2 hr at 4° C., immunocomplexes were collected with Protein A-Sepharose (Pharmacia, Sweden), washed in lysis buffer and boiled for 5 minutes before SDS/PAGE. After electrophoresis, gels were blotted to nitrocellulose membranes, reacted with anti-phosphotyrosine monoclonal antibody 4G10 (UBI, New York) and developed with the ECL Western Detection System (Amersham, UK). Appropriately exposed autoradiograms of phosphotyrosine blots were used for densitometric scanning.

Row | Molecule | Receptor Binding % of wild type (TrkA) [1] | Biological activity, neurite outgrowth from sympathetic ganglia (in words) [2] | Survival of dissociated sympathetic neurons (in words) [3] | Efficiency to mediate biological effects through TrkB and TrkA lower than BDNF or NGF [4] | Nodose neurons rescued (survival) [5] | Receptor Binding % of wild type (TrkB) [6] | Biological Activity % of wild type (neurite outgrowth, sympathetic ganglia) [2] | Survival of nodose neurons (in words) [5] | TrkA tyrosine phosphorylation / activation (in words) [7] | TrkB tyrosine phosphorylation / activation (in words) ([8]; 100 ng/ml) | TrkB receptor binding (in words) [6] | Potency in neurite outgrowth from sympathetic ganglia lower than wild type NGF ([2]; dose-response curves) | TrkC tyrosine phosphorylation (in words) [9] | Increase of nodose neuron survival compared to NT-3 ([5]; saturating concentrations) | EC50 of TrkB receptor phosphorylation ([8]; dose-response, densitometric scanning of phosphotyrosine blots, rtrkB-3T3 cells)
1 | wild-type NT-3: recombinant wild-type rat neurotrophin-3 (SEQ ID NO. 3) produced in COS cells [reference compound] | about 3 % of wild type | only a marginal effect | no survival | about 100 fold | 25% |  |  |  |  |  |  |  |  |  | 
2 | wt NGF: recombinant wild-type rat nerve growth factor (SEQ ID NO. 1) produced in COS cells (protein) SSTHPVFHMGEFSVCDSVSVWVGDKTTATDIKGKEVTVLGEVNINNSVFKQYFFETKCRAPNPVESGCRGIDSKHWSNYCTTTHTFVKALTTDDKQAAWRFIRIDTACVCVLSRKAARRG | 100 % of wild type |  |  |  |  | < 0,2 % of wild type | 100 % of wild type | failed to rescue neurons |  |  |  |  |  |  | 
3 | PNT-1: NT-3 with variable region V replaced from BDNF and amino terminus (residues 3-9) replaced from NGF (protein) SSTHPVFHMGEFSVCDSVSVWVGDKTTATDIKGKEVTVLGEVNINNSVFKQYFFETKCRAPNPVESGCRGIDSKHWSNYCTTTHTFVKALTTDDKQAAWRFIRIDTACVCVLSRKAARRG | ~50 % of wild type | efficiently stimulated neurite outgrowth | correlated with survival of dissociated sympathetic neurons |  | 45% |  |  |  | efficient tyrosine phosphorylation | efficient tyrosine phosphorylation | not changed | 15 fold | efficient tyrosine phosphorylation | ~2 fold | 
4 | wt BDNF: recombinant wild-type brain-derived neurotrophic factor (SEQ ID NO. 2) produced in COS cells (protein) HSDPARRGELSVCDSISEWVTAADKKTAVDMSGGTVTVLEKVPVSKGQLKQYFYETKCNPMGYTKEGCRGIDKRHWSNQCRTTQSYVRALTMDSKKRIGWRFIRIDTSCVCTLTIKRGR | < 0,2 % of wild type |  |  |  | 40% | 100 % of wild type | < 0,2 % of wild type |  |  |  |  |  |  |  | 5 ng/mL
